# Assay: soluble on expression in E. coli; label from the status in PepcDB or PDB records
row,Sequence,soluble on expression in E. coli
1,MIGIVMLSKIANIDAARQGLDLKVKVLSLNKKTIKNDRGETTYFYGIIGDDTGTVSFTAWSFPAAVKSGDVVEIKNCYSSLYNGKIRIYVDSRSQVVLKPDEYLEVKRTVELVKLRDLSLTTPYVSVIGRISGIKEKNYDSDRGSKIVYQGFIEDETAKVRISSFGKPLKDGEIVRVENARVSQYNGYMGISIGENSSIDNVQAQIEVGSRPIFIAEIKSPIGGVTITGFAVSVGQGSRIFTKCSICKKILEDGKCKDHPRAPVYLDIFGYFLLSDGTGSLTCYLNKDSFLPYIKMDTEEFKSQAFSMNPNMLIKKNILGKCLSVTGDLRLRDDKITMNASSIKEADADSVKDIEKTIQEEFQLEHHHHHH,not soluble
2,MTTIVPTSEENPFLAVVRFTSQLAWADAGPEAAEPEITRLCREAEESMVAEKWLELSSLMVTSAELVSSKISEKDLECTYTIICSIVKNAKSPEQVLEMVKAIASKVAQQPSDKASLRLKILFNLYNLVDHPYARFQVYMKALTLAVDGKVTEYIVSSFKKIDNFLKEWNIDIKDQRELFLAIANVLKENKSLVNESLKFLTKYLATFSNEDAQVLDEAKEEAVRAVIEFVKASSIFQCDLLDLPAVAQLEKDAKYAPVYQLLKIFLTQRLNAYTEFQNANSGFLQSYGLSNEDCVTKMRLLSLVDLASDESGKIPYTSIKDTLQVNEQDVELWIVKAITAKLIESALPNVNLGQSNGNLSEQSLRLGSIITTIESNKVTEEGSQASSSSAAAIQGLSVR,soluble
3,MGSDKIHHHHHHMRYAIYFSPAKDHPLTEAASRWLGRNAFSGTLHDDHDDYADLTEEPRRYGFHATLKAPFELAEKYSEAELLAAVEDFAANQSAFEIPRVVVGALGPFFALVPDRVYQPLQDFAAEVVDHFDRFRAPLSETDIARRRPQMLTESQRQNLSLWGYPHVMDDFRFHMTLTGRIDEEEQPAMQEILSTRFAEFVDQPLAISGLALFIEETRGAPFTVHRWHPLGQQPKKDANP,not soluble
4,QRQPGHFCRSVLLAPVGAFLWQRSLPALMSPLPIRKTIHWLLANKPKLFAHKFSRHAWPDSHYRRMGAGYARCRAFIPYWDMVRADTALPLLEWVQDPIELVWGDQDKVLGIDQAAAWSAILARADLTISLKPGWGHYPWIDSPAEFAQWLES,not soluble
5,MWDKSLVFTFFRRRFGMALSTFKREHIKKNLRNDEYDLVIIGGGITGAGIALDASERGMKVALVEMQDFAQGTSSRSTKLVHGGLRYLKQFQIGVVAETGKERAIVYENGPHVTTPEWMLLPMHKGGTFGKFSTSIGLGMYDRLAGVKKSERKKMLSKKETLAKEPLVKKEGLKGGGYYVEYRTDDARLTIEVMKRAAEKGAEIINYTKSEHFTYDKNQQVNGVKVIDKLTNENYTIKAKKVVNAAGPWVDDVRSGDYARNNKKLRLTKGVHVVIDQSKFPLGQAVYFDTEKDGRMIFAIPREGKAYVGTTDTFYDNIKSSPLTTQEDRDYLIDAINYMFPSVNVTDEDIESTWAGIRPLIYEEGKDPSEISRKDEIWEGKSGLLTIAGGKLTGYRHMAQDIVDLVSKRLKKDYGLTFSPCNTKGLAISGGDVGGSKNFDAFVEQKVDVAKGFGIDEDVARRLASKYGSNVDELFNIAQTSQYHDSKLPLEIYVELVYSIQQEMVYKPNDFLVRRSGKMYFNIKDVLDYKDAVIDIMADMLDYSPAQIEAYTEEVEQAIKEAQHGNNQPAVKELEHHHHHH,soluble
6,MHPFYTRAATMIGEIAAAVSFISKFLRTKGLTSERQLQTFSQSLQELLAEHYKHHWFPEKPCKGSGYRCIRINHKMDPLIGQAAQRIGLSSQELFRLLPSELTLWVDPYEVSYRIGEDGSICVLYEASPAGGSTQNSTNVQMVDSRISCKEELLLGRTSPSKNYNMMTVSG,soluble
7,MTEVIAYLIEHFQDFDTCPPPEDLGMLLEEAGFDTMEIGNTLMMMEVLLNSSEFSAEPADSGALRVYSKEETDNLPQEVMGLMQYLIEEKAVSCEQREIIIHALMHIPGDEITVDTAKVLTLLLLWANKSELPVLVGDELMSALLLDNKPTMN,not soluble
8,MRDIMSSPPITTLPMTSVKEAAKIMLENRVGSLIVVNERNTLLGILTKTDIIREVVAKGLDPESVRVGDIMTRNPYYVYTDDSVERAASLMGEHNIGHLPVLDPETEKPVGIVTKTDIVKLAPNYINVIYSLKQEIDRRERLKRIRK,soluble
9,PVLATQWNNYQQSRAAEAYSQLEKGVPPEVLNKAWEEAQQYNANLGDIDPGDAWTSSDDESSSAYQRYLNYLSALNETEAMGRIVLPSIKSDLPIFHGTSDRVLARGVGHLYGTDLPVGAPGELGEDGVIPPAPPEGRLS,not soluble
10,MGSDKIHHHHHHMNLNPIINNFQRPIRKVQICCILIFSCAACSLNIPYENQYSDPDAITTVTAARELLASAYDAIPKPEFSLSVLSDDFQPTFLINLNADLNNLYKWHPKPMEDLSNSLWEKYYSAIAIANTVLERIHYVSPISDSDKQELQCIVSEAKTLKAYCYFNLLRLFAPTYPEGPEKDGIILKERFELAFLKRSSISECVNAIRQLLTEAVTVDNRPSQVYWFSRQSAYYLLAALELYAENYDKAEEYALKILSSTNAYNVLAPVHYKKLWEQEPCEECIFSLHTTNSYYTDMNYERKKGDYFTINSTLTQLYTANDIRYEATVYPQEMPGESIGETLPVLYLGKYNKQNWNYKPIQYINKLRVSGICFILAEAYCQDQKGHDALALEVINNYLAQREAPLLDTSLSGAPLLKAILQEKWKEFAGEGERYFDLKRYRKSLLSDWNLSATMKNKPIKPDDYRWLFPIPKGEYLYNENISQNAGWTKVEK,not soluble
11,MTKVHVVLRKEDIDEMALADRKVAVVFDVLLATSSITAVLAAGARSVIPVRDAEEAKEIALRLPEGSYELVGEYEGRTIAGFHPPAPLFLQTVCPGKTVVLSTTNGTVAIRRAQPARAVYAASLLNSPAVSEHICRLHQEETIIVICSGSSGRFCLEDFYGAGYFVHCLIEQGINAAELSDSATAAWFFYRQYSDEGKAKEVLSASRVGRWMTAYGLEKEIDYINRHGSLSAVPKLELGPFGLELRNMASTKVAKEGISP,soluble
12,MELMKDDRYSPDWKNIAITKKQSVHWVCEWCGVQCLKPGEGKGLLKEERYRLRMAVHHCDYDPGNNSPSNLMAVCSPCHLYYHRRQQGNITPGQLKITINLEHHHHHH,soluble
13,MNIKSLQLFIHLCESKSFAKTAAAMHISPSALSRQIQKLEEETNQQLFVRDNRSVELTTQGKKLMPVALKILSEWQQYQNHIKGTEGELKGEIRLFCSVTASYSHLPELISDFRLQHPFIEFKLSTGDPAQAIDKILADEADIAISAKSEQMPNKIAFET,not soluble
14,MGHHHHHHSHMSVHKLTDLRDNSTNWKINVKILSIWNHPPNSHGEITTMILHDDKNNRVDATIPQGNYHNPFCPFLKPGTWIHISDFRVVVPQSRVRYSSFRFHIKFIWETSVHPLPELVKRDFFD,not soluble
15,MGSDKIHHHHHHMPAFNQHDLSHFVGKHLIYTYDNGWNYELYVKNANTIDYRIHSGIVGNRWVKDQQVYIVQVAREVYKISWTEPTGTDVSLIANIADKVFHGTIFFPRWVINNPEKTVCFQNEHIAEMEAYRDAGPAYPTEVIDEFATITFIRDCGENNNDVINCPASELPADFPACLKK,not soluble
16,MIIDIHGHYTTAPKALEDWRNRQIAGIKDPSVMPKVSELKISDDELQASIIENQLKKMQERGSDLTVFSPRASFMAHHIGDFNVSSTWAAICNELCYRVSQLFPDNFIGAAMLPQSPGVDPKTCIPELEKCVKEYGFVAINLNPDPSGGHWTSPPLTDRIWYPIYEKMVELEIPAMIHVSTSCNTCFHTTGAHYLNADTTAFMQCVAGDLFKDFPELKFVIPHGGGAVPYHWGRFRGLAQEMKKPLLEDHVLNNIFFDTCVYHQPGIDLLNTVIPVDNVLFASEMIGAVRGIDPRTGFYYDDTKRYIEASTILTPEEKQQIYEGNARRVYPRLDAALKAKGKAAALEHHHHHH,not soluble
17,MGSDKIHHHHHHMMFGKSCQVMVKPTGSVCNLDCKYCFYLEKEKLYPDRKNHYKMSEETLELFIRQQIAAQDIDEVIFAWQGGEPTLMGIPFYRKAVEFQQRYCGGKTIVNTFQTNGILINDDWATFFREHDFLVGVSIDGDAALHDEWRVTRSGKPTHEKVENAVRCLAQHDVEFNTLTVVNRTNMHHPVQVYRYLKSIGSRYMQFIPLVERCGENGLAQPQDKHIAMTPWSVDSLQFGQFLNAVFDIWIREDIGDIGIQLFEQTLAAWCGLPPQVCVFAPTCGSAFAMEMNGDVYNCDHFVYPQFKLGNIHQKTLRQMNQGEQNRQFGSDKQRSMAQECHRCQWKFACYGGCPKHRFLPSASGATNHNYLCAGYQAFFSHTATAMSAMRTLYEKGISPAEIKSIFV,not soluble
18,MRYEALRLLCFFDLPMESKDEKRIYRNFRKELISNGFEMLQFSVYYRTCPNRSFANKFYKKLKMSNLPAGNVRLLAVTEKQFSEMTLIIGGKTKQEEIVSDNKLVIILEHHHHHH,soluble
19,MSLEKLTVSDSKKLFHEQFPYVIPGLYKRIVDEMLVELNLLNHQNEFIQDDLFCVGLTETFKELTKGYKPEEHLRVLFESLCNSSNFEPKKIKEASKKTLEVYKDKSLKEISILLKQKSDSNLYSSRIMNLGIYLIIANATDFKDIKDPEKNKIISDIINKLNLSFNKAEKDIGIYKSSILKMEQAKELLQEAKIKDKKEKEGHHHHHH,soluble
20,MAHHHHHHMICEVLQCNRYPPCCGQYPNGEVNVVLPRSVRGDDLFVLQSLVRCDRVGLSHSGTLMELALMIHAARASSAARITAVIPYISFTESVSSMAAVAEILESMGCQHVITVDMPIDQVEGMFSVPLELISARYEFVQYIANQLTAEGHDFRNITVVAPNGAGVHRAKNFADALMQYKKLSPDEQFVPLCTAVRRQVYRGLQDTVLNINHCGANVGSTRAFEQALLQQEQGICAIQDDGDTTITSEGIDLVGDVQGKLCIVVDTSVDEATEICQTACKLREEGASRIILIATHFIISGRAVERLIESPIDLIVVTDSVEHDEVFKNPHIARRLRVLPIAPLLARAIEKLHTENSLTTLFEK,not soluble
21,MGHHHHHHSHIELVCWYMVDRDSIDDEPVDIAFIEGSVSTEEEVELVKKIRENSKIVVAVGACAVQGGVQSWTDKSLEELWRTVYGDAKVKFKPKKAEPVSKYIKVDYNIYGCPPEKRDFLYALGTFL,not soluble
22,MLSHETIWSAIDTLAERHQLTPSALAKRAGLDPTSFNKSKRFGPDGRKRWPSTESVSKVLEATGASVDQFFGYAFGRAQTMQPSGADNAIPLLGFAQAGSGGFFDDGGFPAGQGWDVVEFPSSPERKQGVYALEVQGESMMPLYRDGDILIVEPGAPVRRGDRVVLKSRDGEVMAKVLARQSPKNIELLSLNPEHPNRSFDMADVEWIARIIWASQ,not soluble
23,DKPVLKDSMRLFEQLGRVKSRSMFGGFGIFVDETMFALVVNDTLHIRADDATIEKYKQQGYEPYVYKKRGFPVVTKYYALPEDCWSHPDSILNEVRAALEVAKAERETQAQAK,not soluble
